± gives the uncertainty stated by the source.
B1: library; numbered along this chain (parent)
chain: MEVVDPQQLGMFTEGELMSVGMDTFIHRIDSTEVIYQPRRKRAKLIGKYLMGDLLGEGSYGKVKEVLDSETLCRRAVKILKKKKLRRIPNGEANVKKEIQLLRRLRHKNVIQLVDVLYNEEKQKMYMVMEYCVCGMQEMLDSVPEKRFPVCQAHGYFCQLIDGLEYLHSQGIVHKDIKPGNLLLTTGGTLKISDLGVAEALHPFAADDTCRTSQGSPAFQPPEIANGLDTFSGFKVDIWSAGVTLYNITTGLYPFEGDNIYKLFENIGKGSYAIPGDCGPPLSDLLKGMLEYEPAKRFSIRQIRQHSWFRKKHPPAEAPVPIPPSPDTKDRWRSMTVVPYLEDLHGADEDEDLFDIEDDIIYTQDFTVPGQVPEEEASHNGQRRGLPKAVCMNGTEAAQLSTKSRAEGRAPNPARKACSASSKIRRLSACKQQ

Variants of: B1
Experiment: STK11 functional score (HeLa growth suppression), rescaled enrichment; synonymous median = 1, nonsense median = 0 (normalised score)
Details: with HeLa; variant type: missense
Description: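 Deep mutational scan (TileSeq/POPCode codon randomisation) of full-length codon-optimised STK11 cDNA integrated at a Bxb1 landing pad (AAVS1) in HeLa cells. Restoring functional STK11 suppresses HeLa proliferation. Variant frequencies were measured by NGS before and after about two weeks of growth. The error-corrected enrichment log-ratio was rescaled so that synonymous median = 1 and nonsense median = 0, scores above 1 were compressed, and codon-level and three biological replicate scores were combined; error is the bootstrapped standard error. Scale: synonymous median = 1, nonsense median = 0; below 0.5 = damaging.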

Variant	STK11 functional score
D258R	1.29 ± 0.39
G233A	1.3 ± 0.6
G233W	1.16 ± 0.17
Q123M	1.6 ± 0.17
I248M	1.24 ± 0.3
I424W	0.789 ± 0.13
Y340N	1.03 ± 0.63
Y126C	0.357 ± 0.08
K329S	0.673 ± 0.35
K329G	1.35 ± 0.37
R310F	1.35 ± 0.15
R310P	0.954 ± 0.3
K388I	0.996 ± 0.29
I322C	1.17 ± 0.32
H345I	1.44 ± 0.22
W308F	1.02 ± 0.078
G61R	0.216 ± 0.14
G61V	0.688 ± 0.096
G61H	1.41 ± 0.35
R415L	1.61 ± 0.12
A206T	0.479 ± 0.13
A206I	1.46 ± 0.47
A43P	1.37 ± 0.46
Q112R	0.64 ± 0.078

Variant	STK11 functional score
Q112V	1.01 ± 0.1
L183D	0.119 ± 0.32
R331D	1.24 ± 0.36
E291Q	1.36 ± 0.41
E291S	1.38 ± 0.14
H168A	1.25 ± 0.34
V143I	1.09 ± 0.16
V143G	1.33 ± 0.077
Q37V	1.38 ± 0.15
Q302R	1.53 ± 0.25
Q302G	1.14 ± 0.51
V390R	1.4 ± 0.26
Y36S	0.558 ± 0.26
G56T	0.231 ± 0.097
P280R	1.14 ± 0.17
R333H	1.05 ± 0.33
A347V	1.23 ± 0.32
A347P	1.21 ± 0.28
K48R	1.42 ± 0.54
D350F	0.0925 ± 0.3
T395H	1.53 ± 0.25
T395F	0.847 ± 0.36
T395G	1.49 ± 0.32
C210M	0.956 ± 0.14

Variant	STK11 functional score
E374S	1.46 ± 0.33
E374K	1.47 ± 0.53
R383L	1.42 ± 0.25
R383H	1.57 ± 0.31
R383K	1.57 ± 0.2
R383S	1.3 ± 0.17
D284P	0.0198 ± 0.1
C151M	0.331 ± 0.57
C151A	1.4 ± 0.25
C151G	0.587 ± 0.11
D277C	1.32 ± 0.18
D277F	1.35 ± 0.39
V368Y	1.54 ± 0.24
A316L	0.961 ± 0.14
G381T	1.6 ± 0.27
T230G	0.522 ± 0.15
K175A	0.904 ± 0.14
K175P	-0.179 ± 0.081
L290P	0.264 ± 0.16
L290G	0.0144 ± 0.1
S169Y	1.54 ± 0.34
F204A	1.03 ± 0.52
S421C	0.549 ± 0.38
Y60V	0.694 ± 0.2

Variant	STK11 functional score
Y60N	0.674 ± 0.26
C391W	0.764 ± 0.48
K312G	1.62 ± 0.15
K312C	1.17 ± 0.52
V236S	1.4 ± 0.37
V236L	0.273 ± 0.21
V236A	1.56 ± 0.4
T212Y	1.38 ± 0.12
T212A	1.41 ± 0.17
S240M	0.927 ± 0.66
I46C	1.17 ± 0.2
V20P	1.43 ± 0.45
Y292G	1.45 ± 0.21
E2V	1.36 ± 0.83
P314L	1.21 ± 0.15
R384C	1.14 ± 0.5
R384W	1.35 ± 0.15
M335S	1.53 ± 0.18
M335Y	1.32 ± 0.35
M335W	0.367 ± 0.13
L285I	0.951 ± 0.32
S193G	0.596 ± 0.24
T363H	1.17 ± 0.46
T250L	1.45 ± 0.1

Variant	STK11 functional score
L45R	1.18 ± 0.29
R426T	1.17 ± 0.53
D365W	1.32 ± 0.24
E349S	1.38 ± 0.28
L105R	0.653 ± 0.31
S213N	1.65 ± 0.19
S213L	1.17 ± 0.17
E145S	1.45 ± 0.096
E145I	1.14 ± 0.082
E145A	0.952 ± 0.13
E145N	1.46 ± 0.49
E145Q	1.29 ± 0.22
L400I	1.55 ± 0.28
L400T	1.11 ± 0.44
A200S	0.652 ± 0.15
H27V	1.05 ± 0.12
R103K	1.18 ± 0.77
R103A	1.42 ± 0.15
D358A	1.27 ± 0.15
D358V	1.46 ± 0.2
F255L	0.5 ± 0.21
S401C	1.05 ± 0.36
N393E	1.48 ± 0.16
P222D	-0.103 ± 0.14

Variant	STK11 functional score
C418I	1.41 ± 0.31
V34L	1.13 ± 0.19
G187P	1.49 ± 0.12
G187W	1.65 ± 0.13
L160G	-0.0371 ± 0.071
K122N	1.51 ± 0.3
G52L	1.37 ± 0.22
V114T	1.43 ± 0.086
I360N	1.11 ± 0.67
R211T	1.22 ± 0.53
A218V	1.07 ± 0.19
P324G	1.36 ± 0.15
Q159Y	1.03 ± 0.46
V128H	0.71 ± 0.17
V128G	0.233 ± 0.1
P339Y	1.21 ± 0.39
P339V	0.729 ± 0.19
P221Y	-0.0979 ± 0.12
A389C	1.51 ± 0.32
E256R	1.48 ± 0.19
E256D	1.63 ± 0.4
Q220S	1.21 ± 0.13
Q220D	0.747 ± 0.32
S216P	0.894 ± 0.18

Variant	STK11 functional score
R104T	1.3 ± 0.34
S142F	1.41 ± 0.43
P373V	0.868 ± 0.14
G288L	0.221 ± 0.13
G288R	0.927 ± 0.28
M51H	1.68 ± 0.32
Q364W	0.791 ± 0.5
G408R	1.59 ± 0.16
K191S	1.17 ± 0.19
K191W	0.459 ± 0.11
M392C	1.34 ± 0.31
M392G	1.43 ± 0.22
D229A	0.987 ± 0.31
D348W	1.58 ± 0.25
D348H	1.18 ± 0.6
D348I	1.41 ± 0.13
G242Y	-0.0296 ± 0.066
D355E	1.02 ± 0.47
W332S	1.21 ± 0.33
M127V	0.95 ± 0.26
C430F	1.48 ± 0.14
D68S	1.29 ± 0.27
E357D	0.56 ± 0.73

Reference: the supplement of paper PMC12338614
